Test results: PMC3178039 (Journal of cellular physiology, 2011)

Biological target: the molecule itself
Test: SDS-PAGE and immunoblot

B1: intestinal lactoferrin receptor (LfR) (receptor, human (endogenous in Caco-2), UniProt Q8WWA0 19-298, looked up)
chain: TDEANTYFKEWTCSSSPSLPRSCKEIKDECPSAFDGLYFLRTENGVIYQTFCDMTSGGGGWTLVASVHENDMRGKCTVGDRWSSQQGSKAVYPEGDGNWANYNTFGSAEAATSDDYKNPGYYDIQAKDLGIWHVPNKSPMQHWRNSSLLRYRTDTGFLQTLGHNLFGIYQKYPVKYGEGKCWTDNGPVIPVVYDFGDAQKTASYYSPYGQREFTAGFVQFRVFNNERAANALCAGMRVTGCNTEHHCIGGGGYFPEASPQQCGDFSGFDWSGYGTHVGYS
  stoichiometry N: 3
